The record followed here is patent US20030138440A1 (published 2003).

Data set [1] concerns the target ICAM-1 on HeLa cells (human) (UniProt P05362). Description: cell-based or functional assay.
Data set [2] deals with the molecule itself. The data set can be described thus: self-association of the chimeric protein; size exclusion HPLC. As to the method:
By correlation with sedimentation velocity data, the multimerization state of additional ATFα-based domains was determined by size exclusion HPLC. HPLC size exclusion chromatography was performed on a column selected to resolve species of chimeric multimers ranging from dimers through pentamers. The selected column also resolved species including the Fab moiety of the chimera: Tetramers (6.5S by ultracentrifugation) consistently eluted from the column at 13.7±0.1 min.; trimers (5.5S) eluted at 14.0±0.1; and dimers (4.5S) eluted at 15.0±0.1 min. Data on additional domains is listed in Table 7 along with those determined by sedimentation.

Ends that are not written are not given here.

ICAM-1 on HeLa cells (human), sequence (P05362 28-532): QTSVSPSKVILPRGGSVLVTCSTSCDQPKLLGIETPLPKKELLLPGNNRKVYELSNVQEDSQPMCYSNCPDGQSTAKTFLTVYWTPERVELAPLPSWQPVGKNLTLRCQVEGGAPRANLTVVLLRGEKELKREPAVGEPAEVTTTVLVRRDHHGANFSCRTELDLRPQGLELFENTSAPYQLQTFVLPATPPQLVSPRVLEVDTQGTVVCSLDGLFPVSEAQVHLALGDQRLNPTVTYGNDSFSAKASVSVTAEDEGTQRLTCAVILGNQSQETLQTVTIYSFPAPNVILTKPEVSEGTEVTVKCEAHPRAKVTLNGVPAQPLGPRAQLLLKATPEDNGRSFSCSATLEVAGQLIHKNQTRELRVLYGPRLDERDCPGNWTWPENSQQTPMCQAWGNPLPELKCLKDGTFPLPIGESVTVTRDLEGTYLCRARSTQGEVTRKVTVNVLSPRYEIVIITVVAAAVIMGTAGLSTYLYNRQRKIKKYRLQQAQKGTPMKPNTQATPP

For the molecule “anti-ICAM-1 monoclonal antibody RR/1 (Chemicon)”, the EC50, protection of HeLa cells from HRV15 infection in data set [1] is above 10 nM.

B1: chimeric fusion protein with the ATF-1-IL domain (other, not shown: large carriers)
chain: IKSLENRIAVLENQIKTLIEEIKTLKDLISN
modifications: also: domain of chimeric fusion protein, fusion partner and linker not given here
As for B1, the binding result in data set [2] is “binds”.

B2: chimeric fusion protein with the CREB-Pa-LL domain (other, not shown: large carriers)
chain: LMSLEKKLEELTQTLMQLQNELSMLKNELAQ
modifications: also: domain of chimeric fusion protein, fusion partner and linker not given here
notes: also called CREB-LL
Take B2: the binding result in data set [2] is “binds”.

B3: chimeric fusion protein with the ATF2-LI domain (other, not shown: large carriers)
chain: LQSIEKKLEDISSLLGQIQSELTLIRNELAQ
modifications: also: domain of chimeric fusion protein, fusion partner and linker not given here
Consider B3, for which the binding result in data set [2] is “binds”.

B4: chimeric fusion protein with the ATF2-IL domain (other, not shown: large carriers)
chain: IQSLEKKIEDLSSLIGQLQSEITLLRNEIAQ
modifications: also: domain of chimeric fusion protein, fusion partner and linker not given here
Take B4: in data set [2], the binding result was “binds”.

B5: chimeric fusion protein with the ATF2-LL domain (other, not shown: large carriers)
chain: LQSLEKKLEDLSSLLGQLQSELTLLRNELAQ
modifications: also: domain of chimeric fusion protein, fusion partner and linker not given here
Take B5: the binding result in data set [2] is listed as “binds”.

B6: chimeric fusion protein with the ATF-1-LL domain (other, not shown: large carriers)
chain: LKSLENRLAVLENQLKTLIEELKTLKDLLSN
modifications: also: domain of chimeric fusion protein, fusion partner and linker not given here
As for B6, the binding result in data set [2] is “binds”.

B7: chimeric fusion protein with the CJUN-LL domain (other, not shown: large carriers)
chain: LARLEEKLKTLKAQLSELASTLNMLREQLAQ
modifications: also: domain of chimeric fusion protein, fusion partner and linker not given here
Consider B7, for which, in data set [2], the binding result is on record as “binds”.

B8: chimeric fusion protein with the CJUN-LI domain (other, not shown: large carriers)
chain: LARIEEKLKTIKAQLSEIASTLNMIREQLAQ
modifications: also: domain of chimeric fusion protein, fusion partner and linker not given here
In the case of B8, the binding result in data set [2] is “binds”.

B9: chimeric fusion protein with the ATF-1-II domain (other, not shown: large carriers)
chain: IKSIENRIAVIENQIKTIIEEIKTIKDLISN
modifications: also: domain of chimeric fusion protein, fusion partner and linker not given here
For B9, the binding result in data set [2] was “binds”.

B10: chimeric fusion protein with the JUN-D-LI domain (other, not shown: large carriers)
chain: LSRIEEKLKTIKSQLTEIASTLSLIREQLAQ
modifications: also: domain of chimeric fusion protein, fusion partner and linker not given here
Consider B10, for which the binding result in data set [2] is given as “binds”.
On the same count and under the same terms, for LKSIENRLAVIENQLKTIIEELKTIKDLLSN (other, not shown: large carriers, also: chimeric fusion protein, fusion partner and linker not given here, copies left open) [chimeric fusion protein with the ATF-1-LI domain] the value was “binds”.

B11: chimeric fusion protein with the CREB-Pa-IL domain (other, not shown: large carriers)
chain: IMSLEKKIEELTQTIMQLQNEISMLKNEIAQ
modifications: also: domain of chimeric fusion protein, fusion partner and linker not given here
notes: also called CREB-IL
For B11, the binding result in data set [2] was “binds”.
Regarding LMSIEKKLEEITQTLMQIQNELSMIKNELAQ (other, not shown: large carriers, also: chimeric fusion protein, fusion partner and linker not given here, also called CREB-LI) [chimeric fusion protein with the CREB-Pa-LI domain], in data set [2], the binding result is “binds”.

B12: chimeric fusion protein with the CJUN-IL domain (other, not shown: large carriers)
chain: IARLEEKIKTLKAQISELASTINMLREQIAQ
modifications: also: domain of chimeric fusion protein, fusion partner and linker not given here
For B12, the binding result in data set [2] is “binds”.

B13: chimeric fusion protein with the JUN-D-LL domain (other, not shown: large carriers)
chain: LSRLEEKLKTLKSQLTELASTLSLLREQLAQ
modifications: also: domain of chimeric fusion protein, fusion partner and linker not given here
Regarding B13, in data set [2], the binding result is reported as “binds”.
